B1: Growth factor receptor-bound protein 14 (Homo sapiens), Q14449 (parent)
chain: MTTSLQDGQSAASRAAARDSPLAAQVCGAAQGRGDAHDLAPAPWLHARALLPLPDGTRGCAADRRKKKDLDVPEMPSIPNPFPELCCSPFTSVLSADLFPKANSRKKQVIKVYSEDETSRALDVPSDITARDVCQLLILKNHYIDDHSWTLFEHLPHIGVERTIEDHELVIEVLSNWGIEEENKLYFRKNYAKYEFFKNPMYFFPEHMVSFATETNGEISPTQILQMFLSSSTYPEIHGFLHAKEQGKKSWKKIYFFLRRSGLYFSTKGTSKEPRHLQFFSEFGNSDIYVSLAGKKKHGAPTNYGFCFKPNKAGGPRDLKMLCAEEEQSRTCWVTAIRLLKYGMQLYQNYMHPYQGRSGCSSQSISPMRSISENSLVAMDFSGQKSRVIENPTEALSVAVEEGLAWRKKGCLRLGTHGSPTASSQSSATNMAIHRSQPWFHHKISRDEAQRLIIQQGLVDGVFLVRDSQSNPKTFVLSMSHGQKIKHFQIIPVEDDGEMFHTLDDGHTRFTDLIQLVEFYQLNKGVLPCKLKHYCARIAL

Variants of: B1
Details: with INSR

Row | Variant | effect of a mutation on the interaction
1 | MTTSLQDGQSAASRAAARDSPLAAQVCGAAQGRGDAHDLAPAPWLHARALLPLPDGTRGCAADRRKKKDLDVPEMPSIPNPFPELCCSPFTSVLSADLFPKANSRKKQVIKVYSEDETSRALDVPSDITARDVCQLLILKNHYIDDHSWTLFEHLPHIGVERTIEDHELVIEVLSNWGIEEENKLYFRKNYAKYEFFKNPMYFFPEHMVSFATETNGEISPTQILQMFLSSSTYPEIHGFLHAKEQGKKSWKKIYFFLRRSGLYFSTKGTSKEPRHLQFFSEFGNSDIYVSLAGKKKHGAPTNYGFCFKPNKAGGPRDLKMLCAEEEQSRTCWVTAIRLLKYGMQLYQNYMHPYQGRAGCSAQSIAPMRSISENSLVAMDFSGQKSRVIENPTEALSVAVEEGLAWRKKGCLRLGTHGSPTASSQSSATNMAIHRSQPWFHHKISRDEAQRLIIQQGLVDGVFLVRDSQSNPKTFVLSMSHGQKIKHFQIIPVEDDGEMFHTLDDGHTRFTDLIQLVEFYQLNKGVLPCKLKHYCARIAL [S358A;S362A;S366A] | increasing interaction strength
